This test concerns the target human TRPM4 (transient receptor potential melastatin 4) in transfected HEK 293 cells (human, UniProt Q8TD43 1-1214). The experiment in a line: cell-based or functional assay.

Chain of human TRPM4 (transient receptor potential melastatin 4) in transfected HEK 293 cells (Q8TD43 whole entry): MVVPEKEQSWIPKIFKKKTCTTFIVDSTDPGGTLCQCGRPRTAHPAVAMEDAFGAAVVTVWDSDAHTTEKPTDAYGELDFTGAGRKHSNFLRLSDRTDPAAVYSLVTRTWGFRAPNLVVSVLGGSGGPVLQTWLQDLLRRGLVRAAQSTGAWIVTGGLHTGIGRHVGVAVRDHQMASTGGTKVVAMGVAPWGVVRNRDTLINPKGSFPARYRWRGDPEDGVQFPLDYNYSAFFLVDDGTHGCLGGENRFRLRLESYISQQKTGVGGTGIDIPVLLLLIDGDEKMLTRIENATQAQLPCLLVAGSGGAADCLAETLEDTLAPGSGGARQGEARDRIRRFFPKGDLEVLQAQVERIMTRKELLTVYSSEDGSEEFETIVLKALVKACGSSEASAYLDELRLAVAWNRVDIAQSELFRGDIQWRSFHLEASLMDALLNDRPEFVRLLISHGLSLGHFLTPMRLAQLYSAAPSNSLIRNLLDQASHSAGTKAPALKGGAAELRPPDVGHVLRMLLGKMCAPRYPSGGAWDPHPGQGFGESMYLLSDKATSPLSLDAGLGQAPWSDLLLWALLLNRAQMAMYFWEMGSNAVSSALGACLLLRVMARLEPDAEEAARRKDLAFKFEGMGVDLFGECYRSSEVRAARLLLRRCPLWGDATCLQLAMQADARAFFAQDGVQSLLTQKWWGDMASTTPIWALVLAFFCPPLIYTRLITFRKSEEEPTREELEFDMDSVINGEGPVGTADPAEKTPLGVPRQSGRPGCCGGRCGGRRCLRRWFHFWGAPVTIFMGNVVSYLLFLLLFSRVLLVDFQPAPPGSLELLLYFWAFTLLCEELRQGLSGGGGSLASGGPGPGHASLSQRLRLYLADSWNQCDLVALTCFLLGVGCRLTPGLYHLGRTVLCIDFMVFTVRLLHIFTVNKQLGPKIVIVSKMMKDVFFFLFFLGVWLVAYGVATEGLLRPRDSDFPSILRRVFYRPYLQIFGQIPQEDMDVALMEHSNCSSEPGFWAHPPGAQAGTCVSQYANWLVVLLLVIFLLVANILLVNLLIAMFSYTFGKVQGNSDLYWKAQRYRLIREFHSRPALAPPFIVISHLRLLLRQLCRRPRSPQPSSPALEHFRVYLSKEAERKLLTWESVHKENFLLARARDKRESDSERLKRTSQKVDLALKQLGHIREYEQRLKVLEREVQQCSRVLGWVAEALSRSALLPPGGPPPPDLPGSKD

B1: humanized anti-TRPM4 antibody clone A2 (VH1 + VL1) (antibody, human IgG1, kappa, V domains shown)
VH: QVQLQESGPGLVKPSQTLSLTCTVSGYSITSDYAWNWIRQHPGKGLEWIGYLSYSGVTSYNPSLKGRVTISVDTSKNQFSLKLSSVTAADTAVYYCARKGTYYRYEGSYWYFDVWGQGTTVTVSS
VL: DIQMTQSPSSLSASVGDRVTITCHANQNIDVWLSWYQQKPGKAPKLLIYKTSNLHTGVPSRFSGSGSGTDFTFTISSLQPEDIATYYCQQGQSYPLTFGGGTKLEIKR
For the molecule B1, the “IC50, dose-dependent inhibition of hypoxia-induced TRPM4 current increase” value was determined as 1.23 µg/mL.

For the origin of these results see patent US20260201028A1 (SINGAPORE HEALTH SERVICES PTE, published 2026).
